Data as given in publication PMC2250751.
Values belong to the substance of their own block, whether it stands above or below them.

How the values were obtained:
D90A SOD1 (human) [1] = biological target: D90A SOD1 (human) (UniProt P00441); assay: SEC; metal-free (apo) form at time zero, before incubation; gel filtration chromatography
D90A SOD1 (human) [2] = biological target: D90A SOD1 (human) (UniProt P00441); assay: SEC; zinc-reconstituted form; gel filtration chromatography; 100 µM (as dimer), 20 mM phosphate pH 7; no larger species also after more than a month at 37°C
G93A SOD1 (human) [3] = biological target: G93A SOD1 (human) (UniProt P00441); assay: SEC; metal-free (apo) form at time zero, before incubation; gel filtration chromatography
G93A SOD1 (human) [4] = biological target: G93A SOD1 (human) (UniProt P00441); assay: SEC; zinc-reconstituted form; gel filtration chromatography; 100 µM (as dimer), 20 mM phosphate pH 7; no larger species also after more than a month at 37°C
G93D SOD1 (human) [5] = biological target: G93D SOD1 (human) (UniProt P00441); assay: SEC; metal-free (apo) form at time zero, before incubation; gel filtration chromatography
G93D SOD1 (human) [6] = biological target: G93D SOD1 (human) (UniProt P00441); assay: SEC; zinc-reconstituted form; gel filtration chromatography; 100 µM (as dimer), 20 mM phosphate pH 7; no larger species also after more than a month at 37°C
I35T SOD1 (human) [7] = biological target: I35T SOD1 (human) (UniProt P00441); assay: SEC; metal-free (apo) form at time zero, before incubation; gel filtration chromatography
I35T SOD1 (human) [8] = biological target: I35T SOD1 (human) (UniProt P00441); assay: SEC; zinc-reconstituted form; gel filtration chromatography; 100 µM (as dimer), 20 mM phosphate pH 7; no larger species also after more than a month at 37°C
I113F SOD1 (human) [9] = biological target: I113F SOD1 (human) (UniProt P00441); assay: SEC; metal-free (apo) form at time zero, before incubation; gel filtration chromatography
I113F SOD1 (human) [10] = biological target: I113F SOD1 (human) (UniProt P00441); assay: SEC; zinc-reconstituted form; gel filtration chromatography; 100 µM (as dimer), 20 mM phosphate pH 7; no larger species also after more than a month at 37°C
I113T SOD1 (human) [11] = biological target: I113T SOD1 (human) (UniProt P00441); assay: SEC; metal-free (apo) form at time zero, before incubation; gel filtration chromatography
I113T SOD1 (human) [12] = biological target: I113T SOD1 (human) (UniProt P00441); assay: SEC; zinc-reconstituted form; gel filtration chromatography; 100 µM (as dimer), 20 mM phosphate pH 7; no larger species also after more than a month at 37°C
L67V SOD1 (human) [13] = biological target: L67V SOD1 (human) (UniProt P00441); assay: SEC; metal-free (apo) form at time zero, before incubation; gel filtration chromatography
L67V SOD1 (human) [14] = biological target: L67V SOD1 (human) (UniProt P00441); assay: SEC; zinc-reconstituted form; gel filtration chromatography; 100 µM (as dimer), 20 mM phosphate pH 7; no larger species also after more than a month at 37°C
L144F SOD1 (human) [15] = biological target: L144F SOD1 (human) (UniProt P00441); assay: SEC; metal-free (apo) form at time zero, before incubation; gel filtration chromatography
L144F SOD1 (human) [16] = biological target: L144F SOD1 (human) (UniProt P00441); assay: SEC; zinc-reconstituted form; gel filtration chromatography; 100 µM (as dimer), 20 mM phosphate pH 7; no larger species also after more than a month at 37°C
T54R SOD1 (human) [17] = biological target: T54R SOD1 (human) (UniProt P00441); assay: SEC; metal-free (apo) form at time zero, before incubation; gel filtration chromatography
T54R SOD1 (human) [18] = biological target: T54R SOD1 (human) (UniProt P00441); assay: SEC; zinc-reconstituted form; gel filtration chromatography; 100 µM (as dimer), 20 mM phosphate pH 7; no larger species also after more than a month at 37°C
V87M SOD1 (human) [19] = biological target: V87M SOD1 (human) (UniProt P00441); assay: SEC; metal-free (apo) form at time zero, before incubation; gel filtration chromatography
V87M SOD1 (human) [20] = biological target: V87M SOD1 (human) (UniProt P00441); assay: SEC; zinc-reconstituted form; gel filtration chromatography; 100 µM (as dimer), 20 mM phosphate pH 7; no larger species also after more than a month at 37°C
V97M SOD1 (human) [21] = biological target: V97M SOD1 (human) (UniProt P00441); assay: SEC; metal-free (apo) form at time zero, before incubation; gel filtration chromatography
V97M SOD1 (human) [22] = biological target: V97M SOD1 (human) (UniProt P00441); assay: SEC; zinc-reconstituted form; gel filtration chromatography; 100 µM (as dimer), 20 mM phosphate pH 7; no larger species also after more than a month at 37°C

Substance: D90A SOD1 (from UniProt P00441 8-154) (enzyme)
stoichiometry N (D90A SOD1 (human) [1]): 2
stoichiometry N (D90A SOD1 (human) [2]): 2

Substance: G93A SOD1 (from UniProt P00441 8-154) (enzyme)
stoichiometry N (G93A SOD1 (human) [3]): 2
stoichiometry N (G93A SOD1 (human) [4]): 2

Substance: G93D SOD1 (from UniProt P00441 8-154) (enzyme)
stoichiometry N (G93D SOD1 (human) [5]): 2
stoichiometry N (G93D SOD1 (human) [6]): 2

Substance: I113T SOD1 (from UniProt P00441 8-154) (enzyme)
stoichiometry N (I113T SOD1 (human) [11]): 2
stoichiometry N (I113T SOD1 (human) [12]): 2

Substance: L67V SOD1 (from UniProt P00441 8-154) (enzyme)
stoichiometry N (L67V SOD1 (human) [13]): 2
stoichiometry N (L67V SOD1 (human) [14]): 2

Substance: V87M SOD1 (from UniProt P00441 8-154) (enzyme)
stoichiometry N (V87M SOD1 (human) [19]): 2
stoichiometry N (V87M SOD1 (human) [20]): 2

Substance: V97M SOD1 (from UniProt P00441 8-154) (enzyme)
stoichiometry N (V97M SOD1 (human) [21]): 2
stoichiometry N (V97M SOD1 (human) [22]): 2

Next, values leading:

stoichiometry N (I35T SOD1 (human) [7]): 2
stoichiometry N (I35T SOD1 (human) [8]): 2
Substance: I35T SOD1 (from UniProt P00441 8-154) (enzyme)

stoichiometry N (I113F SOD1 (human) [9]): 2
stoichiometry N (I113F SOD1 (human) [10]): 2
Substance: I113F SOD1 (from UniProt P00441 8-154) (enzyme)

stoichiometry N (L144F SOD1 (human) [15]): 2
stoichiometry N (L144F SOD1 (human) [16]): 2
Substance: L144F SOD1 (from UniProt P00441 8-154) (enzyme)

stoichiometry N (T54R SOD1 (human) [17]): 2
stoichiometry N (T54R SOD1 (human) [18]): 2
Substance: T54R SOD1 (from UniProt P00441 8-154) (enzyme)
